Results: patent US20210395393A1 (EMSTOPA, published 2021)
Substitutions are numbered along the chain they refer to. Values belong to the binder of their own block, whether it stands above or below them.

What was measured:
[1] = target: T1, recombinant human tPA (rh-tPA: abcam ab92637) (human, UniProt P00750 36-562); assay: binding ELISA, plate coated with human tPA
T1 construct: Bought protein; also called tPA antigen
Excerpt: (§1) Binding activity of the purified TPAi-1 RHP/RKA F(ab′)2 to the human tPA antigen was compared to that of the purified TPAi-1 RHP/RKA whole IgG1 antibody and RHP/RKA Fab in a binding ELISA. […] The EC50 values for the IgG1 and Fab are in agreement with those seen in earlier experiments. There is a consistent 4-fold difference in avidity between these two formats.

[2] = target: T1, recombinant human tPA (rh-tPA: abcam …); assay: cell-based or functional assay
[3] = target: T1, recombinant human tPA (rh-tPA: abcam …); assay: binding ELISA, plate coated with human tPA; Fab as Expi293 conditioned medium
Excerpt: (§2) Binding activity of the TPAi-1 RHP/RKA Fab to the human tPA antigen was compared to that of the purified TPAi-1 RHP/RKA antibody in a binding ELISA. […] Following purification of TPAi-1 RHP/RKA Fab from a large scale culture, its binding to human tPA was reconfirmed by ELISA (FIG. 23). In this assay, plateauing of both binding curves was more apparent.

[4] = target: T1, recombinant human tPA (rh-tPA: abcam …); assay: binding ELISA, plate coated with human tPA; reference TPAi-1 RHP/RKA IgG1
Excerpt: as §1

[5] = target: T1, recombinant human tPA (rh-tPA: abcam …); assay: binding ELISA, plate coated with human tPA; reference TPAi-1 RHP/RKA Fab
Excerpt: as §2

[6] = target: T1, recombinant human tPA (rh-tPA: abcam …); assay: binding ELISA to human tPA after serum incubation
Method: Purified samples of humanised antibodies TPAi-1 RHE/RKA and RHP/RKA were incubated in mouse, human and cynomolgus serum (4.10.1). The binding abilities of the antibodies after 29 days incubation were measured by binding ELISA to human tPA. For each antibody, one ELISA plate compared the binding of the 4° C. control sample to samples incubated at 37° C. in PBS and human serum. A second ELISA plate compared the binding of the 4° C. control sample to samples incubated at 37° C. in mouse and cynomolgus serum. […] Therefore the TPAi-1 RHE/RKA and RHP/RKA antibodies retained their binding capabilities on incubation in mouse, human and cynomolgus serum for 29 days.

T1 sequence (P00750 36-562 limits assumed): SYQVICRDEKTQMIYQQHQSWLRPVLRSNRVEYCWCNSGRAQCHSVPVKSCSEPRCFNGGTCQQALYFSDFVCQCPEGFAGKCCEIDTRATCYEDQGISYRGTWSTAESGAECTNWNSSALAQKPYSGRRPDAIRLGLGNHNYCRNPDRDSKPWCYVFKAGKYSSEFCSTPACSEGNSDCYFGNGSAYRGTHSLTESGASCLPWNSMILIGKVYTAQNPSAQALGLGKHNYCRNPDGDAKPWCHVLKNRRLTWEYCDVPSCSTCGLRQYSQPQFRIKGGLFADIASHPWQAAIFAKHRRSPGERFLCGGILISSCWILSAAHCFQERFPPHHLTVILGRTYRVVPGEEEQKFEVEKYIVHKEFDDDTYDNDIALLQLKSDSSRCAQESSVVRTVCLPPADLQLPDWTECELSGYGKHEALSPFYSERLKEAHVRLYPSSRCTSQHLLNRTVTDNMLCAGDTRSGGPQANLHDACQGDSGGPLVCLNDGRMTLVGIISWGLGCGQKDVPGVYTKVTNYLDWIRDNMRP

B2: TPAi-1 RHP/RKA (antibody, V domains shown)
VH: QVQLVQSGAEVKKPGASVKVSCKASGNTSYWINWVRQATGQGLEWMGRIDPGGGSTGYAQKFQGRVTMTRDTSISTAYMELSSLRSEDTAVYYCASYYYAMAYWGQGTLVTVSS
VL: DVVMTQSPLSLPVTPGEPASISCRSSQSIVHSNGNTYLDWYLQKPGQSPQLLIYKVSNRASGVPDRFSGSGSGTDFTLKISRVEAEDVGVYYCFQGSHVPWTFGGGTKVEIK
notes: Human IgG1 kappa (pHuG1 / pHuK vectors); also called humanised TPAi-1 (RHP/RKA); humanized TPAi-1
- EC50 [1]: 475 pM
- plateau A650 of the binding curve against the plateau of the Fab curve [5]: ~1.4 fold

B4: TPAi-1 RHE/RKA (antibody, V domains shown)
VH: B2 VH with D71N
VL: B2 VL
notes: Human IgG1 kappa
- binding result [6]: binds

Now from value to binder:

- EC50 [1]: 1680 pM
- inhibition of human plasma clot lysis (t-PA 1.5 nM, A405 nm turbidity) [2]: ~2 fold (amount against TPAi-1 RHP/RKA)
- EC50 [3]: 1150 pM
- fold difference in avidity between IgG1 and Fab [4]: 4 fold
B1: TPAi-1 RHP/RKA Fab (Fab, V domains shown)
VH: B2 VH
VL: B2 VL
notes: Recombinant Fab: RHP variable region in pHuG1_Fab vector with RKA in pHuK, expressed in Expi293 cells; also called TPAi-1 RHP/PKA Fab; humanised Fab

- EC50 [1]: 379 pM
B3: TPAi-1 RHP/RKA F(ab')2 (other)
VH: B2 VH
VL: B2 VL
notes: F(ab')2 made by pepsin digestion of TPAi-1 RHP/RKA IgG1 kappa and gel filtration
